Laboratory results: the DeepSol protein solubility set

experiment: soluble on expression in E. coli; label from the status in PepcDB or PDB records

Sequence	soluble on expression in E. coli
LLGLGVGPGDPELITLKALRLLRAAPVVGYFVAKGKKGNAFGIIEAHLDQAQVRLPLVYPVTTEKLEPPLCYETIISDFYDTAAEQLAAHLDAGRDVAVICEGDPFFYGSYMYLHDRLATRYESEVVPGVCSMLGGAAVLGAPLVYRNQSLSVLSGVLPEEELRRRLADADAAVVMKLGRNFDKVRRVLVELGLERRALYVERATMANQRIVPLERVEPMASPYFSLIVVPGDKWQGGAGGE	not soluble
MQFTDGGKEVELRLRLKTGEILSPKDISVDADGTSLAVKEKRNGLLITLLETNHLFEKIMPSETIWYIDEDQLVVNMKKVDGELKWPDIVESWESLTAGMMQLLKGASIYIVGDSTEINQKVSRELAVGLGYSPLDSKELLESFSKQTIDSWILAEGPDSVAEAESSVLESLSSHVRTVVSTLGGKHGAAGRADQWRHLYSGFTVWVSQTEATDEESAKEEARRSKQEREIGYSNADVVVKLQGWDPTHAKSVAQASLSALKQLIISDKGLPGNK	not soluble
MRKWQCVVCGFIYDEALGLPEEGIPAGTRWEDIPADWVCPDCGVGKIDFEMIEIA	soluble
MSLDQREILQKFLDEAQSKKITKEEFANEFLKLKRQSTKYKADKTYPTTVAEKPKNIKKNRYKDILPYDYSRVELSLITSDEDSSYINANFIKGVYGPKAYIATQGPLSTTLLDFWRMIWEYSVLIIGMACMEYEMGKKKCERYWAEPVEMQLEFGPFSVSCEAEKRKSDYIIRTLKVKFNSETRTIYQFHYKNWPDHDVPSSIDPILELIWDVRCYQEDDSVPICIHCSAGCGRTGVICAIDYTWMLLKDGIIPENFSVFSLIREMRTQRPSLVQTQEQYELVYNAVLELFKRQMDVIRDKHSGTESQAKHCIPEKNHTLQADSYSPNLPKSTTKAAKMMNQQRTKMEIKESSSFDFRTSEISAKEELVLHPAKSSTSFDFLELNYSFDKNADTTMKWQTKAFPIVGEPLQEGHHHHHH	not soluble
MEFKEYKGKNVDEAITNACIDLGIEAAKLEYEVIEKGSNGFLGIGSKPAIIKAKKNQSVEDIAREFLNKVFTAMELTVKIDIKIVENEKENIVNINIIGEDMGILIGKRGQTLDSLQYLVSLVINKECEKFNRVKLDTENYRERRKATLENLARNISLKVKRIKKPVALEPMNPYERRIIHSALQNDKFCTTKSEGDEPYRHVVVMLKKDAR	not soluble
KFWRRWAGQSQYKGRWREMVTRSALALKLLTSRKHGGIVAAATFGLPETEAGERNWDYRYTWIRDASFTVYAFMRLGYTDEANAFMGWVRGRLDDCCEQTEKLGILYALDGHAELPEEHLDHLTGYGGAQPVRIGNEAYKQVQLDIYGELMDAVYLANKYGDAISHDGWQHVVRQVDYVCEHWNDRDVGIWEMRGGDQHFLHSRLMCWVALDRALRLAFKRSLSGPFERWNKVREDIQNDIWDNFWNEELGHFVQYKGSRNLDASMLLMPLVRFVGANDPKWLATLDAIEAALVRDGMVFRYRNDDDHDDGLAGEEGAFVACSFWYVECLARAGRVEQAHLEFEQLLRYANPLGLYAEEFDGHARHLGNTPQALSHLALISAASFLDRKLSGEQALWQP	not soluble
MQAKLFMIPWLIELVISQRAPSPPNPTPSAQVLTNDLLVDAHRRHFLDMLRRQQQINDALLLNNALLHPHPLPPLHIPANPAIQELNLPPAPPLFNPFIPAQVANQGPTSKLGTYGKDDEPEKKSEELKETPEEKEGTVGAPVRTDLVKKTLAGVKTVSIQKKGDVTGETLTTMEVVAPTTSTISPEDLEVVQLFKKLNLSKEETKSIVERVEQVVREKLMSKMDTSSTTTEVTTVVTTPSTTTTTTSTTQAPTTTTKEFIEEEIEEEDYSVATTAPPPQMHIRSEENLILQRNNLKHHPIKLQEKKLPESLESEEISQGSIKTSLTHLPIFVANEEEDVASLNPKSALHKRILIASQDREKESDRDLLVDFATGAPLDLSEPDVTKSKYEASPVATSPATLAPAQVTTRPVAPPRLNYHERTDFERLASDYRRRLENTGDINKILQKISENAYISLVERGGRRRLFGS	not soluble
MAHHHHHHMGTLEAQTQGPGSMIFNVLTIFPQMFPGPLGVSNLGSALKKGLWTLNVFDIRAFANNKHNTVDDTPYGGGPGMLLRADVLGRCIDEVLSLHPNTKLMFTSPRGVSFTQDIARQTMNFDNITLLCGRFEGIDERVVDFYKLQEVSIGDYVLSGGELAAMVIIDTCVRMVPGVIGNAESLKQESMEGSLEYPQYTRPASWKGMEVPEVLLTGNHGEIEKWRRNASLSITAARRPDLLKDRYGENDVE	soluble
